Laboratory results taken from paper PMC5818487.
pKd: −log10 of the molar value.

Tests used:
Assay in all cases: SPR; Biacore T200; ICAM-1-Fc proteins captured on Protein A on a CM5 chip (1108 ± 108 RU); DBLβ domains flowed as twofold dilution series 1000-7.81 nM at 30 µl/min, 240 s association, 600 s dissociation; 10 mM HEPES pH 7.2, 250 mM NaCl, 0.05% Tween-20; global 1:1 model; 1 mg/ml ssDNA added to BC12a DBLβ
[1] = molecular target: ICAM-1 domains 1-5 Fc fusion protein (reference, wild type) (UniProt P05362)
[2] = molecular target: ICAM-1 Kilifi (K29M) Fc fusion protein (UniProt P05362)
[3] = molecular target: ICAM-1 L42A mutant Fc fusion protein (UniProt P05362)
[4] = molecular target: ICAM-1 L44A mutant Fc fusion protein (UniProt P05362)
[5] = molecular target: ICAM-1 S22A mutant Fc fusion protein (UniProt P05362)

| Substance | pKd [1] | koff [1] [s⁻¹] | kon [1] [M⁻¹ s⁻¹] | % ICAM-1^D1D5 binding [2] [%] | % ICAM-1^D1D5 binding [3] [%] | % ICAM-1^D1D5 binding [4] [%] | % ICAM-1^D1D5 binding [5] [%] | pKd [5] |
| --- | --- | --- | --- | --- | --- | --- | --- | --- |
| BC12a DBLβ domain (PfEMP1 of the dominantly expressed var gene of isolate BC12) (domain or fragment) | 6.71 | 0.000944 | 4800 |  |  |  |  |  |
| IT4var13 DBLβ domain (from UniProt A3R6S0 1-3274) (domain or fragment) | 8.46 | 0.000125 | 36100 | 8.9 | 3.1 | 10 | 94.5 | 8.01 |
| J1a DBLβ domain (PfEMP1 of the dominantly expressed var gene of isolate J1) (domain or fragment) | 7.29 | 0.00153 | 29600 | 5.4 | 1.4 | 2.7 | 10.9 |  |
